According to PMC13293227:

Molecular target: T1, GST-ZAKα 701-800 (Homo sapiens, UniProt Q9NYL2 701-800)
T1 sequence: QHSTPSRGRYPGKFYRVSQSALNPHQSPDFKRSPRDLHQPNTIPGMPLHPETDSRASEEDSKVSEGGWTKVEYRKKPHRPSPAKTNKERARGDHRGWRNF
Experiment: EMSA; supershift with GST antibody; EMSA: 20 mM HEPES pH 7.6, 3 mM MgCl2, 40 mM KCl, 5% glycerol, 2 mM DTT, 100 fmol probe in 20 µl, 20 min on ice; 4% native PAGE, 0.25x TBE
Conditions: protein: recombinant; tags: GST; label: 5'-IRDye700; single strand, seemingly unstructured

AGCUUAGGAAUAUCAAUGUUAAGUAG (ssRNA) [ARE-IRDye700]
binding result: binds
